Assay results as given in patent KR20230163144A.

B1: WM-A1-3102 (antibody, V domains shown)
VH: QMQLVQSGAEVKKPGSSVKVSCKASGGTFSSYAISWVRQAPGQGLEWMGGIIPVLGATNYAQRFQGRVTMTADESTTTAYMELSGLRSEDTAVYYCARGRSWGFDYWGHGTLITVSS
VL: DIVMTQTPLSLPVTPGQPASISCKSSQSLLHSDGNTYLDWYLQKPGQSPQLLIYTLSHRASGVPDRFSGSGSGTDFTLKISRVEADDVGLYYCMQRIEFPYTFGQGTKVEIK
B2: WM-A1-3133 (antibody, V domains shown)
VH: QMQLVQSGGKLVQPGSSLRLSCAASGFSFDDYGMSWVRQAPGKGLEWVSAISGSGGSTYYADSVKGRFTISRDNSKNTLYLQMNSLRAEDTAVYYCARGGRVYGMDVWGQGTTVTVSS
VL: DIQMTQSPSSVSASVGDTVTITCRASHDIRRWLAWYQQKPGEVPKVLIYAAAVLHSGVPSRFSGSGSGTDFSLTITNLQPEDVATYYCQKYDSVPFTFGGGTKLEIK
B3: WM-A1-3128 (antibody, V domains shown)
VH: QVQLVESGGGVVQPGKSLRLSCAASGFSLRTYGMHWVRQAPGKGLEWVANIWHDGSHTFYADSVQGRFTVSRDNSANLLFLQMNSLRAEDTAVYYCARGGSYSRYSDAFDIWGQGTVITVSS
VL: DIQMTQSPGTLSLSPGERATLSCRASQSVSSSYLAWYQQKPGQAPRLLIYDASNRATGIPARFSGTGSGTDFTLTISSLEPEDFAVYYCQQRSNWPLTFGGGTKVEIK
B4: WM-A1-3106 (antibody, V domains shown)
VH: QVQLVESGGGVVPPGGSVRLSCAASGFTFGDYAMHWVRQAPGKGLEWVSLISGDGGTTYYGDSVKGRYTISRDNSKNSLYLQMNSLRAEDTAVYYCARGGRVYGMDVWGQGTTVTVSS
VL: DIQMTQSPSSLSASVGNRVTITCRASQGISVWLAWFQQKPETAPKSLIYGSSNLQSGVPSRFSGSGSGTDFTLTINNLQPEDFATYYCQQYKASPPTFGGGTKVDIK
B5: WM-A1-2608 (antibody, V domains shown)
VH: QVQLVQSGGGLVQPGGSLRLSCEASGFAFRRYEMNWVRQTPGKGLEWIAYINSGGSVKVYADSVKGRFAISRNDSKNSLYLQMNSLRAEDTAVYYCARAGNAFGTFDYWGQGTLVTVSS
VL: DIQMTQSPSSVSASVGDRVTITCRASQDISRWLAWYQQKPGKAPKRLMYAASVLDVGVPSRFSGSGSGTDFTLTISNLQPEDFATYYCQQPISFPLTFGGGTKVDIK
B6: WM-A1-2613 (antibody, V domains shown)
VH: QVQLQESGPGLVKPSGTLSLTCAVSGDSVISTDWWSWVRQPPGKELEWIGEIHHSGSTNYNPSLEGRVTISVDKSKNQFSLKLTSVTAVDTAVYYCSRGSGGRDAFDVWGQGTMITVSS
VL: QSALTQPPSSSGTPGQKVTISCSGSMSNIGGNYVSWYQQVPGTAPKLLIFKTNQGAAGVPDRFVGSKSGTSASLVISGLRPEDEATYYCASWDDIGDGPTWVFGGGTKLTVL
B7: WM-A1-3105 (antibody, V domains shown)
VH: QMQLVQSGAEVKRPGSSVKVSCKASGRSTYNYAFYWVRQAPGHGLEWMGGIIPIFGATNYAQKFQGRVTITADESTNTAYMEVTNLRSEDTAVYYCAKGSGNYYYGMDVWGQGTTVTVSS
VL: DIQMTQSPSSVSASVGDRVTITCRASQSVGTWLAWYQQKPGRAPKLLISAASSLHPGVPSRFSGSGSGTDFTLTISSLQPEDFATYYCQQADSFPYTFGQGTKLEIK

Each binder was assayed against IGSF1 항원 (IGSF1 카복시 말단 도메인의 세포외 도메인 - 인간 Fc - his tag 융합 단백질) (human) (UniProt Q8N6C5) (assay: ELISA; human IGSF1 antigen diluted 1/3 from 100 nM to 0.046 nM; fit in GraphPad Prism 6).

Compared with B1, B2 is 16-fold higher in Kd: 18.8 nM for the first, 300 nM for the second.

B3 and B4 are within 1.5-fold of each other in Kd: 27.2 nM for the first, 20.8 nM for the second.

B5 and B6 are within 1.5-fold of each other in Kd: 0.097 nM for the first, 0.1 nM for the second.

Binder B7 has a Kd of 29.5 nM.
